Laboratory results reported in patent EP1230262B1 (BROWN UNIVERSITY RESEARCH FOUNDATION, dated 2017).

T1: α-sarcoglycan, recombinant human, 35S-labelled, in vitro transcribed and translated (human, UniProt Q16586 1-387, limits assumed, 35S label; not glycosylated)
T1 construct: also called alpha-sarcoglycan
T1 sequence (looked up): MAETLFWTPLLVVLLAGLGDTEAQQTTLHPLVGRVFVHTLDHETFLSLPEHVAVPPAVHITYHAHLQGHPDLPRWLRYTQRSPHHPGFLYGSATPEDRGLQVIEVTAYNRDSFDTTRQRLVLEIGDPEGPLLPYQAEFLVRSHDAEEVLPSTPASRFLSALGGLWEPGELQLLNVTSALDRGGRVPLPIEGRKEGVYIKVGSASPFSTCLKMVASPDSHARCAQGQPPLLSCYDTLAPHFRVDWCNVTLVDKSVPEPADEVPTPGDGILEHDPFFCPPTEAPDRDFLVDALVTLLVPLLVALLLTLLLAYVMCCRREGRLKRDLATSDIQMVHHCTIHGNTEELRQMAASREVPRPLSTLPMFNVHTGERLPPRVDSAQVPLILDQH

B1: γ-sarcoglycan, recombinant human, 35S-labelled, in vitro transcribed and translated (other, UniProt Q13326 1-291, looked up)
chain: MVREQYTTATEGICIERPENQYVYKIGIYGWRKRCLYLFVLLLLIILVVNLALTIWILKVMWFSPAGMGHLCVTKDGLRLEGESEFLFPLYAKEIHSRVDSSLLLQSTQNVTVNARNSEGEVTGRLKVGPKMVEVQNQQFQINSNDGKPLFTVDEKEVVVGTDKLRVTGPEGALFEHSVETPLVRADPFQDLRLESPTRSLSMDAPRGVHIQAHAGKIEALSQMDILFHSSDGMLVLDAETVCLPKLVQGTWGPSGSSQSLYEICVCPDGKLYLSVAGVSTTCQEHNHICL
modifications: 35S label; not glycosylated
notes: also called gamma-sarcoglycan
B2: decorin proteoglycan (core and side chains), recombinant, vaccinia system (other, UniProt P07585 31-359, looked up)
chain: DEASGIGPEVPDDRDFEPSLGPVCPFRCQCHLRVVQCSDLGLDKVPKDLPPDTTLLDLQNNKITEIKDGDFKNLKNLHALILVNNKISKVSPGAFTPLVKLERLYLSKNQLKELPEKMPKTLQELRAHENEITKVRKVTFNGLNQMIVIELGTNPLKSSGIENGAFQGMKKLSYIRIADTNITSIPQGLPPSLTELHLDGNKISRVDAASLKGLNNLAKLGLSFNSISAVDNGSLANTPHLRELHLDNNKLTRVPGGLAEHKYIQVVYLHNNNISVVGSSDFCPPGHNTKKASYSGVSLFSNPVQYWEIQPSTFRCVYVRSAIQLGNYK
modifications: glycosaminoglycan side chain
notes: also called DEC-PG; DECPG
B3: decorin core (no side chains), recombinant, vaccinia system (other, UniProt P07585 31-359, looked up)
chain: B2 chain

Legend:
Assay in all cases: overlay assay with 35S in vitro translated sarcoglycan
[1] = target: B2
[2] = target: B3
[3] = target: T1, α-sarcoglycan, recombinant human, …

Binder	binding result [1]	binding result [2]	binding result [3]
B1	no binding	no binding	–
B2	–	–	no binding
B3	–	–	no binding
